Reference: patent US20200129630A1, “METHODS FOR TREATING CANCER” (BicycleRD Limited, priority 2018, published 2020)
Where “and” joins values, the source holds several entries; their conditions need not be identical. Equal entries are not always repeated. Numbered stars: 1 amine (or outer) side, 2 acyl side, 3 side chain; on linkers, the order of the positions; unused ones are H or OH. Bridge positions count the residues as written; N and C are the ends. Square brackets hold non-standard residues; d marks the D form. Peptide text beside a SMILES is read from it. * marks the point of attachment. X1 = COc1cc2cc(c1Cl)N(C)C(=O)C[C@H](OC(=O)[C@H](C)N(C)C(=O)CCSSC(C)CCC(=O)*)[C@]1(C)O[C@H]1[C@H](C)[C@@H]1C[C@@](O)(NC(=O)O1)[C@H](OC)/C=C/C=C(\C)C2; 1Nal = N[C@@H](Cc1cccc2ccccc12)C(=O)O; TBMB = c1c(C[*:1])cc(C[*:3])cc1C[*:2]; Tle = CC(C)(C)[C@H](N)C(=O)O; βAla = NCCC(=O)O; Sar = CNCC(=O)O

Tests used:
[1] = Clinical pharmacokinetics of BT1718, 1 h intravenous infusion; type: in vivo, patients; settings: for clearance / half-life / Vd: human, plasma
Text: Intact BT1718 and total DM1 (DM1 in BT1718, any peptidyl-DM1 metabolites of BT1718, and other DM1-containing mixed disulfides and free DM1) will be measured in plasma according to agreed standard operating procedures (SOPs) and validated methods in Phase I, dose escalation phase (Stage 1 and 2) and potentially in Phase IIa, expansion phase (Parts A and B), dependent on emerging data.
The plasma concentration/time data will be analyzed using non-compartmental methods. The PK parameters to be determined for intact BT1718 include Cmax, Tmax, AUC, t1/2, total body clearance (CLT) and Vdss. The PK parameters to be determined for total DM1 include Cmax, Tmax, AUC and t1/2.
The preliminary clinical pharmacokinetic data for BT1718 following a 1 hour intravenous infusion to patients are shown in Table 13 below.

[2] = CNS behavioral model (Irwin study); type: in vivo; settings: single dose 0.2, 0.5 or 1 mg/kg, rats
Protocol: As part of the Good Laboratory Practice (GLP)-compliant toxicity studies, a core battery of safety pharmacology tests were performed. […] Electrocardiogram (ECG) and respiratory plethysmography measurements were taken in monkeys dosed at 0.2, 0.5, 1 and 1.5 mg/kg (2.4, 6, 12 and 18 mg/m^2 respectively) twice weekly on Day 4, Day 22 (following 2nd and 7th dose) and in the recovery period (for animals dosed with 0, 6 and 12 mg/m^2 twice weekly). Blood pressure (BP) measurements were also evaluated in the same monkeys on Day 1 and Day 25 and in the recovery period. […] It is therefore concluded that BT1718 has no cardiac, respiratory or behavioral liability at the doses and schedule tested in the GLP toxicity studies.

[3] = Stability in whole blood in vitro, mouse; type: in vitro ADME; settings: 37° C.
Protocol: The stability of BT1718 was assessed in plasma and whole blood from humans, monkey, dog, mouse and rat. […] The mechanism for the difference in stability of the BT1718 peptide in whole blood between the different species is unknown.

[4] = Monkey GLP study toxicokinetics; type: in vivo; settings: plasma, Day 1 male; for clearance / half-life / Cmax / Vd: Cynomolgus; for Cmax: read-out: C0/Cmax; for Vd: read-out: Vdss
Text: (§1) In a repeat dose experiment with BT1718 no significant gender-related differences in the TK parameters for the rat or monkey were noted. Exposure in both the rat and monkey increased approximately linearly with dose and was maintained for 28 days on repeat dosing. […] Plasma clearance and volume of distribution were similar across BT1718 dose and consistent with the PK studies.

[5] = Plasma protein binding, dog; type: in vitro ADME; settings: read-out: free fraction
Protocol: Plasma protein binding of BT1718 was also assessed. The mean plasma protein binding of the BT1718 peptide ranged from 87% to 98%, with the free fraction of BT1718 being 13% in human, 2.6% in rats, 7.5% in mice, 3.8% in monkey and 1.5% in dog plasma, the results had no correlation to the plasma and whole blood stability data. […] Plasma protein binding of unconjugated DM1, has previously been reported, with the unbound fraction being 7% in human and monkey and 3% in rat.

[6] = Non-GLP toxicity studies, dog; type: in vivo
Text: These include in vitro tissue microarray in human, rat and monkey tissues and in vitro and in vivo assessment of immunogenicity. In vivo assessments include single dose toxicity in mice and rats, multiple dose range finding studies in mice, rats, dogs and monkeys (non-GLP) and GLP-compliant multiple dose studies in rats and monkeys consisting of 28-day on study phase with a 28-day recovery period.

[7] = target: hemopexin domain of MT1-MMP (Homo sapiens, UniProt P50281); test: Binding to hemopexin domain of MT1-MMP
Protocol: Bicycle drug conjugates (BDCs) with a variety of linkers and cytotoxic payloads were prepared which retained binding to MT1.
BT1718 is a BDC that binds to MT1-MMP and upon cleavage of its disulphide linker, releases the cytotoxic tubulin inhibitor, DM1 (also referred to as DM1-SH).

[8] = Wistar Han rat GLP study toxicokinetics; type: in vivo; settings: plasma, Day 1 male; for Cmax: read-out: C0/Cmax
Text: as §1

EBC-1 xenograft = test: Dosing schedule experiment in EBC-1 xenograft mice; settings: 60 mg/m^2 once weekly
Protocol: Anti-tumor activity was compared when equivalent total weekly doses were administered either once, twice or three times weekly or once daily.

[9] = 9.6 mg/m^2, 1 h IV infusion, individual patients
[10] = 2.4 mg/m2, Monkeys GLP, 2.4 mg/m^2 IV
[11] = 6 mg/m2, Monkeys GLP, 6 mg/m^2 IV
[12] = 12 mg/m2, Monkeys GLP, 12 mg/m^2 IV
[13] = 18 mg/m2, Monkeys GLP, 18 mg/m^2 IV
[14] = dogs 1 mg/kg, 20 mg/m^2 twice weekly
[15] = 1.2 mg/m2, Wister Han rats GLP, 1.2 mg/m^2 IV
[16] = 3 mg/m2, Wister Han rats GLP, 3 mg/m^2 IV
[17] = 6 mg/m2, Wister Han rats GLP, 6 mg/m^2 IV

COc1cc2cc(c1Cl)N(C)C(=O)C[C@H](OC(=O)[C@H](C)N(C)C(=O)CCSSC(C)CCC(=O)NCCC(=O)N(C)CC(=O)N(C)CC(=O)N(C)CC(=O)N(C)CC(=O)N(C)CC(=O)N(C)CC(=O)N(C)CC(=O)N(C)CC(=O)N(C)CC(=O)N(C)CC(=O)N[C@@H](C)C(=O)N[C@H]1CSCc3cc4cc(c3)CSC[C@H](NC(=O)[C@@H](C)NC(=O)[C@H](Cc3cccc5ccccc35)NC(=O)[C@H](CCC(=O)O)NC(=O)[C@H](CC(N)=O)NC(=O)[C@@H](C)NC1=O)C(=O)N[C@@H](CCC(=O)O)C(=O)N[C@@H](CC(=O)O)C(=O)N[C@@H](Cc1ccccc1)C(=O)N[C@@H](Cc1ccc(O)cc1)C(=O)N[C@@H](CC(=O)O)C(=O)N[C@@H](C(C)(C)C)C(=O)N[C@H](C(N)=O)CSC4)[C@]1(C)O[C@H]1[C@H](C)[C@@H]1C[C@@](O)(NC(=O)O1)[C@H](OC)/C=C/C=C(\C)C2 (stereo partly shown) [BT1718] ({X1-βAla}-[Sar][Sar][Sar][Sar][Sar][Sar][Sar][Sar][Sar][Sar]AC[dA]NE[1Nal][dA]CEDFYD[Tle]C-NH2; linker 12-18-25 via TBMB (inferred))
CLp [1, 9]: 4.4 mL/min/kg and 10.2 mL/min/kg
Vss [1, 9]: 0.18 L/kg
t½ [1, 9]: 17 min and 14 min
clearance ([1]; intravenous, Data for all patients, read-out: CLp): 10 mL/min/kg
half-life ([1]; intravenous, Data for all patients, read-out: t½): 18 min
clearance ([1]; intravenous, Data for cycle 1 only, read-out: CLp): 12 mL/min/kg
half-life ([1]; intravenous, Data for cycle 1 only, read-out: t½): 18 min
clearance ([1]; intravenous, patients, read-out: Mean (±SD) plasma clearance (CLp) (converted)): 538 mL/min
Vd ([1]; intravenous, patients, read-out: mean (±SD) volume of distribution (Vss)): 22.9 L
half-life ([1]; intravenous, patients, read-out: terminal half-life (t½)): 12 to 60 min
clearance ([1]; iv, 1.2 mg/m^2, 1.2 mg/m^2, 1 h IV infusion, individual patient, read-out: CLp): 12.5 mL/min/kg
Vd ([1]; iv, 1.2 mg/m^2, 1.2 mg/m^2, 1 h IV infusion, individual patient, read-out: Vss): 0.23 L/kg
half-life ([1]; iv, 1.2 mg/m^2, 1.2 mg/m^2, 1 h IV infusion, individual patient, read-out: t½): 6 min
clearance ([1]; iv, 2.4 mg/m^2, 2.4 mg/m^2, 1 h IV infusion, individual patient, read-out: CLp): 18.4 mL/min/kg
Vd ([1]; iv, 2.4 mg/m^2, 2.4 mg/m^2, 1 h IV infusion, individual patient, read-out: Vss): 0.3 L/kg
half-life ([1]; iv, 2.4 mg/m^2, 2.4 mg/m^2, 1 h IV infusion, individual patient, read-out: t½): 6 min
clearance ([1]; iv, 4.8 mg/m^2, 4.8 mg/m^2, 1 h IV infusion, individual patient, read-out: CLp): 13.3 mL/min/kg
Vd ([1]; iv, 4.8 mg/m^2, 4.8 mg/m^2, 1 h IV infusion, individual patient, read-out: Vss): 0.19 L/kg
half-life ([1]; iv, 4.8 mg/m^2, 4.8 mg/m^2, 1 h IV infusion, individual patient, read-out: t½): 10 min
Vd ([1]; iv, 9.6 mg/m^2, 9.6 mg/m^2, 1 h IV infusion, individual patients, read-out: Vss): 0.15 L/kg
half-life ([1]; iv, 9.6 mg/m^2, 9.6 mg/m^2, 1 h IV infusion, individual patients, read-out: t½): 16 min
AUC vs dose ([1]; over the range 0.6-25 mg/m2): approximately dose proportional
CNS behavioral effects (Irwin study) [2]: No effects
half-life [3]: > 1440 min
clearance [4, 10]: 13.4 ± 4.7 mL/min/kg
half-life [4, 10]: 12.6 min
Cmax [4, 10]: 200 ± 40 nM
Vd [4, 10]: 0.24 ± 0.05 L/kg
clearance [4, 11]: 8.8 ± 0.8 mL/min/kg
half-life [4, 11]: 13.8 min
Cmax [4, 11]: 670 ± 40 nM
Vd [4, 11]: 0.17 ± 0.02 L/kg
clearance [4, 12]: 8.2 ± 0.6 mL/min/kg
half-life [4, 12]: 21.6 min
Cmax [4, 12]: 1210 ± 90 nM
Vd [4, 12]: 0.21 ± 0.01 L/kg
clearance [4, 13]: 6.7 mL/min/kg
half-life [4, 13]: 22.8 min
Cmax [4, 13]: 2530 nM
Vd [4, 13]: 0.16 L/kg
AUC [4, 10]: 0.08 ± 0.02 µM·h
AUC [4, 11]: 0.28 ± 0.03 µM·h
AUC [4, 12]: 0.59 ± 0.14 µM·h
AUC [4, 13]: 1.09 µM·h
fraction unbound [5]: 0.015
GI findings ([6]; dog 1 mg/kg (20 mg/m^2) twice weekly): Slight to moderate small intestinal degeneration
bladder findings ([6]; dog, 14 mg/m^2 twice weekly): Bladder epithelial degeneration
hepatic findings [6, 14]: Elevated liver enzymes
peripheral haematology [6, 14]: significant decreases in WBCs
renal findings [6, 14]: Moderate renal tubule degeneration and epithelial mitosis
Ki [7]: 1.75 ± 0.92 nM
AUC [8, 15]: 0.09 µM·h
Cmax [8, 15]: 80 nM
AUC [8, 16]: 0.46 µM·h
Cmax [8, 16]: 590 nM
AUC [8, 17]: 0.85 µM·h
Cmax [8, 17]: 1020 nM
weight loss (EBC-1 xenograft): > 10%
